Data published in the supplement of paper PMC12455559.

assay: purified protein yield per well (BCA); higher = higher soluble expression
Procedure, shortened: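 Each candidate enzyme was grown in E. coli C41(DE3) in a 2 mL autoinduction culture (100 µg/mL kanamycin; 2 h at 37 °C, then 40 h at 18 °C) and purified robotically via Ni-charged magnetic beads with SUMO protease cleavage. Purified protein yield per well was assessed using the Pierce Rapid Gold BCA kit. Readings below 25 ug (0.1 mg/mL) are beneath the detection threshold.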

Purified protein yield per well, < 25 µg:
MPGDALTDPWQNGRSDDGERGDTRRLHHIVRPVDLGGLSTEAEGHPLVLGFASDAGVRRNRGRPGAAEGPAAIRRMLSNLAAHELQTLLDAGDITCEGEALEAAQQACALALAKALSLGAFPVLLGGGHEIAVASFMGLRRYLDDQGDAGKVLVLNIDAHLDLRTSRPPSSGTPFDEIARYCEAHGHAWRYACIGVSKPSNTAALFARADEIGQAPTATNIYGNGSFSVASSSISPLVSGFGGGVVYYPTAPGLYPVVAVSPGFTATWSSISWIGPRLASWGFVVVGIETNTLLDQPSSRGQQLLAALNWAVSSSAPSAVRSRADGTRRGVAGHSMGGGGSLEALAMDTTGNVKAAVPIAPWNTDKTWNNVNEPVLIVGGQWDTVAPVATHSIPFYNTLAGPKAYVELNNATHFFPQFDDAMTSRALVAWFKRWLNNDTRFTPFTCGFSGLSISDFRSNAC [TEP180]
MPRDGERKQKPEGARVRAYRAGPGSPPRPPRPVRLALLAVAFVTAAVAALFAVQPASAQPSAAAVTPNSTQRGPDPTIQSIEASRGTFATAQSSVAPGNGFNGGVIYYPTDTSQGTWGALAIVPGYTAKCANEEAWMGPWLASFGFVVICIETNSTTDFDVARGQELLAALNWLTTASPVRNEIDPNRLAVLGHSAGGAGAIEAAEQRPSLRAMIGLAPGFPGQGLSMLTDRVPTLVVGGQNDTVVTPSYLSGLYATMPASTQSAFAQIAGADHVYYTHANNVEMKLIIPWLKIFVDGDTRYEQFLCPTLPDPSTISIYQPKCPYVPPGGGSPSPSASASASASASASASASASASASASASASSSPSASASASASSSPSGVPAGGCAAVYQAVGSWPGGYQAQVTVTAGGAPITGWSVRWNLSSGQSISSLWNGSYTVSGSSVTVANASYNGTLAAGASTTFGFTANGAPSTPTLTCTGK [ESM145]
MQVARDGSAFQSPPETSGGIRSWRPTGRLWQRGVAAVAAAATLGALTIALTAVQPAAGAENPYQRGPDPTPASVSANRGTFATAQVSVPAGNGFGGGVIYYPTDTSQGKFGAIAIVPGYTATWAAEGAWMGPWLASFGFVVIGIDTNTRNDWDNARGQQLLAALDYLTQRSSVRDRVDATRTAVMGHSMGGGGAAYASLQRPSLKTSIGLAPASFSQNLTTTKVPTMLLSGQNDTTVSPASVLSLYNGIPAGVEKAYLELSNVGHLFPTSNNPTMMRNIIPWFKIFIDSDTRYTQFLCPLSNTTGIRSYQSTCPLVPSTPPTTTTTTTTTSTTTTTDTTTTTTDTTTTTTDSTTSTTTTTPGSGPSCTAAYTVVNQWGGGFQAEVRVAAGSTPISGWTVTWAWANGQTVTQQWSATITSSGPNVTAVNVGYNGNLGAGAATTFGFIASVNGANTPPTLACAAR [ESM022]
MRDGPKFGTATVYYPENAQAPYASLLIVTGFVHPESAMKAWGPFLASHGIVTLTIGTNKLKDDPFKRRDALLDAVRSLKAEHLRKDSPLWHKLALDRIGVAGWSMGGGGAQLAAAADPSLRAVIGFCPWLPKANFEHPVPSLIIAGTLDSIANVFLNARAHYAGISETTPKLIIEIPYGGHWIANDPANANGAIGQIGLSWLKVYLEGDTRYRQFLLTPPISGGYFRHNLE [TEP077]
MREHEDAMSGGRMPSGARPPRLIGLAVAAIAAVVTMIAAMLAVGPVSAQPAPTAVTPHSTQRGPDPTLAMIEASRGPFATAQQGVAPGNGFNGGEIYYPTDTSQGTWGALVIIPGYTARCVNQPAPEEAWMGPWLSSFGFVVLCMETNSPNDFDTARGQEALAALNWLTTASPVRGEVDPNRLSVMGHSMGGGGVVYAVEHQPSLRAGIGLAPFSPSQNMAGDKVPTLILGGQNDSTVTPSYLSGLYATMPAATQSAFAQIAGAGHGFYTSPNNVMMKLAIPWLKVFVDSDNRYEQFLCPTLPDPSQISIYRSKCPYVPPGGGPTSTTTTPPPPAGACQAVYQPQNSWPGGFQGLVTVTAGSSPVSGWTVTWALSGGQAITQLWSGNLTTSGSAVTVKNASYNGSLAAGASATFGFTATGAASTPTLTCTSP [ESM146]
MRRSLPPSAEAGTAVGGAGPGRPARPVLPLAAVALTLVAAVTAALLAIRPATTDAKSSQRGPDPTLAGVAAATGPFTTAQVSVPPGDGFNGGTIYYPADTSRGTWAAVAISPGYTALFADEEAWMGPRLASFGFVVIGIETDSRTDYDSQRGTQLLAALDYLTTQSPVRNRVDPRRLGVIGHSMGGGGVVYAAENRPSLKAAVALAPYSPTQDMSTDTVPTMVIDGQNDTVVTPAAVDALYATLPASTRSAFMQIDGADHAYYTHPNPVEMRVLIPWLKIFLDNDTRYTRFLCPSPADPSGVSSYHSRCP [TEP071]
MRSDCSPPWRWWPGAALAPAANAAAPAHPVRLAANPYERGPAPTEASITAEKGPFAIERIDVPAGSGPGFNKGTIYAPTDLSQGTFGAIAVSPGFVSPQAWIDWYGPRLATQGFVVMTLETNSLFDVPAARGEQLLAALDYMTGGSRVKDRIDASRLAVMGHSMGGGGTLEAADDRPALQAAVPLAPWNTNYDWKNVRVPTMIMGADNDAIAPADSMAESYYDNLTSVPEKAYLELKNAGHMTFNSPNTTIAKYTIAWMKRFVDDDARYERFLCPEPAPGATIAQYEGTCPTG [TEP141]
MRSDMTPEPEGTVAKAGWARSQPRPATRAVMAVAAVLALLAGLLAIGQASARSAPSAASPATTQRGPDPTVGMIEATRGPFATAQVAMPTGHGFGGGMIYYPTDTSQGTWGVLAIVPGYSALFADEEAWMGPWLSSFGFVVVGVETNTRTDSDSQRAADLLAALDYLTTQSPVRTQVDPARMAVLGHSAGGAGAIEAAEQRPSLRALIGLAPGFPGQGLSMAADTVPALIIGGQNDGTVTPSYLSSLYGTLPASTQSAFAQIAGADHVYYTHPNNVEMKLIIPWLKVFVDSDTRYTQFLCPSLPDPSTISAYQPKCPYIPPGGSSSPSSSSSSSSAPPPNSAPLHAVGAAKCLDVPNSSTTAGTQLQIYTCSNGANQLITHTGSNQLTVYSSTMCLDANNKGTTNGTKVIIWPCNGQSNQQWNLNPNGTITSAASGLCLDVTGASTANGALVQLWTCNGGSNQQWHLG [TEP169]
MRSSVTQVPACKGAETSEARPRTGSRPVGLRAVVVAVVAGLIAALVSAQPVSARPAPARPGAAQDNPYERGPDPTVGSVAAQRGTFATAEMNVSPGNGFNGGKIYYPTDTSQGTWGAVAAVPGFTARWAAEGAWMGHWLASFGFVVIGIDTNSPNDYDTARGTQLLAALDYLTQKSPVRDRVDPDRLGVIGHSMGGGGAISAAVRRPSLKAAVPLAPFSPSQDLSTLRVPTMIMGARDDGTVTPSYLDGLYARTPAATQSAFIELTSGGHGFPTWGNSHVTRRMIPWLKIFIDNDTRYTQFLCPSPADRSNISRWQTKCPYVPPGGTTPPPSGGQVVGAGSARCLDVPSQTNGTQVRLWDCLDRAGQKWTRTEAAELRVHGGKCLDAEASGTSPGTRVVIWDCHGGQNQRWNIGTNGTITSTRSGLCLDAYNSGTANGTQVVLWNCNGGANQRWTFR [DP042]
MRSTSTTPTASSVSGAGAFAISSATVGGGNGFGSATIYFPTDTSQGTFGGLAVSPGFTETQSALRWWAQRLATHGFVVINISTNSTFDNPSSRATQLQNALNYLVNTSSVRTRVDRTRLGVSGHSMGGGGTLEAARNNTALQAAIPLMPWDQTKSFPGILTPTMIVAGQNDTVARPSSHAIPFYNSIPDSSEKVYLELAGAGHNASNSTNPTISLFGVSWAKRYIDNGTRYEQFICPGGGSGISSYRQT [ESM152]
MSATRGTFATAQLSVPAGNGFGGGVIYYPTDTSQGTFGGVAIVPGYSALFANEEAWMGPWLASFGFVVIGIETNSRTDGADARATQLLAALDYLTQRSSVRDRVDSSRLSVVGHSAGGAGVILATGQRPSLKAAVGLAPGSPTGNLSLANDRVPMMFISGQRDTTVTQSYLNGLYTTLPASTPSAWVEITGVDHLFATRANTTEMRTLIPWLKIFVDNDTRYTQFLCPLMDSSNISMYRNKCPYVPPGGPSPSPSPSPSPSPSPSPSPSPSPSPSPSPSPSPSPSPSPSPSAGACTASYRTTNSWPGGHQGEVTVTAGGSAISGWTVRWTLGSGQTVSQVWNGTLSVSGSTVTVTNASYNGSLPASGSTTFGFLGTGTASAPSLTCTSRP [ESM002]
MSGFGGGTIYYPSGTTGTMAAIVVIPGYVSSQSSIEWWGPRLASNGFVVMTIDTNATTDQPPARARQINAALDYLIAQNRASGSPVNGMIDTSRLGVVGWSMGGGGTLRVASEGRIKAAIPLAPWDTTTFRNVKAPTLIFACESDTIAPVRNHASPFYNQVPTSIPKAFVQLNRGNHYCANGGNAFNADLSRLGVSWMKRFLDNDRRFSQFLCGPNHTSDRDISEYRGNCPY [TEP104]
MTVPPGNGFNGGKIYYPTDTSLGTWAAVAAVPGYTARWDAEGAWMGPWLASFGFVVIGIDTNSPTDYDTARGTQLLAALDYLTQKSPVRDRVDPNRLGVLGHSMGGGGAISAAERRPSLKAALPLAPFSPSQNLSSLRVPTMIMGARDDGTVTPSYLNGLYGSMPTATQSAYIELTSGGHGFPTWGNSNVTRRTIPWLKIFLDNDTRYTQFLCPSLADSSGISRSQTKCPYVPPGGTTTPPSGGQIVGAGSGRCLDVPNASQTNGAQVQLWDCSGNVNQKWARTDAGELRVYGSKCLDAEGSGTSPGTRVIVWDCHGGQNQRWNVNTNGTITSVGSGLCLDTNGGGTGNGAQTVLGNCNGAPTQRWTVR [ESM105]
MVSGTATATPAATAAHPVRAAANPYERGPAPTVASVEAPLGPYAVSRITVARSSVSGFGGGTVHYPTSTADGTFGAVAVSPGFTGTQSSIAWYGPRLASQGFVVLTIDTLTGLDQPASRGRQLLAALDYLTGESAVRGRIDRTRLGVMGHSMGGGGSLEAAKSRTSLKAAIPLTGWNLDTTWPEVRTPTLVVGADGDTVAPVAAHSEPFYASLPGTLDKAYLELKGAVHRTPITANTTIAKYSVSWLKRFIDNDTRYERFLCPLPAPGPTIAEYRGNCPHT [TEP118]
MVSYSPRYKAVAFTVAAGLVGGGLAGLAPNRHERGPDPTRALLEAPRGPLATARTVVPRAEAAGYGGGTIYHPAEMRTGETYGAVAIIPGRNGPQSGMSWYGPRLASHGFIVFTIDALRPLDRPPARGAQLQAALQQLAVRSPVATHVDAGRLAVMGHSLGGAGALEAAKARPGLRAAIPLTPSDVAGPDFSGVRVPTLILAAEKDTVAPLGRHARKFYRAIPRGTEKAYVELAGATHGFPKLPHPTVARYTIAWLKRWVDGDRRYDRVLCPSGRREPAVSFQRDTCPHD [TEP187]
MYYPTTTSVGTFGAVAIAPGYTARESSIAWLGPRLASQGFVVFTIDTITTQDQPSSRGDQLRAALSYVATESSVRTRVDGSRLAVMGHSMGGGGSLQAAKDDPSIRAVIPMTPYDLDKTWPEVVAPTLVIGAEDDTVAPVSRHAEPFYESLTQASEKAYLELRGASHFAPNVSNTTIASASIAWLKRHVDADTRYERFICPAPAVSLQISEYRSTC [TEP079]
